Here are results for one molecule from US20200199225A1.

The experiment has as its target BCRs exhibiting the target structure on primary B-cells from the blood of leukemia patients. Put plainly: cell-based or functional assay.

B1: AVA-mAb01 (antibody, V domains shown)
VH: QVQLQQSGPGLVQPSQSLSITCTVSGFSLTSYGIHWVRQSPGKGLEWLGVIWRGGGTDSNAAFMSRLSITKDNSKSQVFFKMNSLQADDTAIYYCARSRYDEEESMNYWGQGTSVTVSS
VL: QIVLTQSPASLSASVGETVTITCRASGNIHSYLAWYQQKQGKSPQLLVYNAKTLADGVPSRFSGSGSGTQYSLKINSLQPEDFGSYYCQHFWNTPPTFGAGTKLELK
Consider B1, for which the lymphocyte count in the flow-through after double purification over LS columns with antibody-conjugated MACS MicroBeads (start: 80,000 lymphocytes/µl) (lymphocytes/µl) is less than 5000.
